Type in all cases: biochemical
Common to all, as to design: key to Activity of mutant relative to wild-type Gaussia luciferase without the signal peptide: ratio of mutant luminescence intensity to wild-type Gaussia luciferase

Assay [1] in a line: Luminescence activity assay of purified Gaussia luciferase mutants on coelenterazine derivative ZS2. Particulars: Substrate ZS2 (Table 16). The essentials: (§1)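 Readout: luminescence intensity, as ratio to signal-peptide-free wild-type enzyme. Enzyme 1 μg/mL, substrate 100 μM stock, 10 μL + 90 μL; buffer 50 mM Tris-HCl pH 8.0, 100 mM NaCl, 0.1% Tween-20.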
A short description of assay [2]: Luminescence activity assay of purified Gaussia luciferase mutants on coelenterazine. Particulars: Substrate CTZ (Table 16). The method in brief:
as §1

Assay [3] is described as follows: Luminescence activity assay of purified Gaussia luciferase mutants on fluoro-coelenterazine. Particulars: Substrate f-CTZ (Table 16). Here is the method: In this Example, the protein concentration was determined with a BCA quantitative kit (Thermo Scientific™ Pierce™ BCA Protein Assay Kit) accurately. The purified luciferase obtained in Example 5 was diluted with diluent (50 mM Tris-HCl, pH 8.0, 100 mM NaCl, 0.1% (v/v) Tween-20) to 1 μg/mL. The diluted luciferase, taken for 10 μL, was moved into a black 96-well plate, then added with 90 μL of the substrates coelenterazine, fluoro-coelenterazine or coelenterazine derivative ZS2 (purchased from Biolab) which was diluted into 100 μM with the same diluent, and the luminescence intensity of the plate was read with a self-luminescence module of a microplate reader. The mutation site of the mutant, the measured luminescence intensity, the ratio of luminescence intensities of the advantageous mutants to the wild-type Gaussia luciferase without the signal peptide having the sequence shown in SEQ ID NO: 3 are shown in Table 15. The results of catalytic activity assay of the advantageous mutants relative to the wild-type Gaussia luciferase without the signal peptide having the sequence shown in SEQ ID NO: 3 on substrate coelenterazine are shown in FIG. 6. […] The results of catalytic activity assay of the advantageous mutants relative to the wild-type Gaussia luciferase without the signal peptide having the sequence shown in SEQ ID NO: 3 on substrate fluoro-coelenterazine are shown in FIG. 7.
The new mutant library constructed in Example 7 was screened and tested for substrate specificity. Expression and purification schemes were the same as that in Example 5, and the activity assay scheme was the same as that in Example 6. The respective catalytic activities of combinatorial mutants on coelenterazine, fluoro-coelenterazine or coelenterazine derivative ZS2, and coelenterazine derivative ZS26 (purchased from BIOLAB) were assayed, and comparisons among the substrate specificities of the combinatorial mutants were based on the ratios of catalytic activities on two corresponding substrates.

B1: F26I N27D V29D A30G A32E S33G A36T L40S del117-119 D139H: Gaussia luciferase mutant (protein)
chain: MGVKVLFALICIAVAEAKPTENNEDIDIDGVEGNFTTTDSDADRGKLPGKKLPLEVLKEMEANARKAGCTRGCLICLSHIKCTPKMKKFIPGRCHTYEGDKESAQGGIGEAIVDIPGFKDLEPMEQFIAQVDLCVHCTTGCLKGLANVQCSDLLKKWLPQRCATFASKIQGQVDKIKGAGGD
modifications: SIGNAL (1)..(17)
notes: Gaussia luciferase mutant
Take B1: the “Activity of mutant relative to wild-type Gaussia luciferase without the signal peptide” value in assay [1] stood at 0.010; in assay [2] it was 0.043.

B2: F26R N27D V29D A30G A32D S33N T37A L40P: Gaussia luciferase mutant (protein)
chain: MGVKVLFALICIAVAEAKPTENNEDRDIDGVDNNFAATDPDADRGKLPGKKLPLEVLKEMEANARKAGCTRGCLICLSHIKCTPKMKKFIPGRCHTYEGDKESAQGGIGEAIVDIPEIPGFKDLEPMEQFIAQVDLCVDCTTGCLKGLANVQCSDLLKKWLPQRCATFASKIQGQVDKIKGAGGD
modifications: SIGNAL (1)..(17)
notes: Gaussia luciferase mutant
As for B2, the figures for the “Activity of mutant relative to wild-type Gaussia luciferase without the signal peptide” value in assay [1], in assay [3] and in assay [2] were 0.031, 0.049 and 0.031, respectively.

B3: F26I N27H V29G A32G S33D A36G T37L L40I: Gaussia luciferase mutant (protein)
chain: MGVKVLFALICIAVAEAKPTENNEDIHIGAVGDNFGLTDIDADRGKLPGKKLPLEVLKEMEANARKAGCTRGCLICLSHIKCTPKMKKFIPGRCHTYEGDKESAQGGIGEAIVDIPEIPGFKDLEPMEQFIAQVDLCVDCTTGCLKGLANVQCSDLLKKWLPQRCATFASKIQGQVDKIKGAGGD
modifications: SIGNAL (1)..(17)
notes: Gaussia luciferase mutant
As for B3, the “Activity of mutant relative to wild-type Gaussia luciferase without the signal peptide” value in assay [1] amounted to 0.479; in assay [2], 0.055.

B4: F26G N27Y A30D V31L A32V S33R A36M T37E L40G: Gaussia luciferase mutant (protein)
chain: MGVKVLFALICIAVAEAKPTENNEDGYIVDLVRNFMETDGDADRGKLPGKKLPLEVLKEMEANARKAGCTRGCLICLSHIKCTPKMKKFIPGRCHTYEGDKESAQGGIGEAIVDIPEIPGFKDLEPMEQFIAQVDLCVDCTTGCLKGLANVQCSDLLKKWLPQRCATFASKIQGQVDKIKGAGGD
modifications: SIGNAL (1)..(17)
notes: Gaussia luciferase mutant
With B4, the results for the “Activity of mutant relative to wild-type Gaussia luciferase without the signal peptide” value in assay [1] and in assay [2] were 1.203 and 0.003, respectively.

B5: F26I A30D A32V S33G A36D T37K L40V: Gaussia luciferase mutant (protein)
chain: MGVKVLFALICIAVAEAKPTENNEDINIVDVVGNFDKTDVDADRGKLPGKKLPLEVLKEMEANARKAGCTRGCLICLSHIKCTPKMKKFIPGRCHTYEGDKESAQGGIGEAIVDIPEIPGFKDLEPMEQFIAQVDLCVDCTTGCLKGLANVQCSDLLKKWLPQRCATFASKIQGQVDKIKGAGGD
modifications: SIGNAL (1)..(17)
notes: Gaussia luciferase mutant
Take B5: the “Activity of mutant relative to wild-type Gaussia luciferase without the signal peptide” value in assay [1] was found to be 2.392; in assay [2], 0.636.

B6: F26I V29F A30G A32E S33D A36N T37D L40T: Gaussia luciferase mutant (protein)
chain: MGVKVLFALICIAVAEAKPTENNEDINIFGVEDNFNDTDTDADRGKLPGKKLPLEVLKEMEANARKAGCTRGCLICLSHIKCTPKMKKFIPGRCHTYEGDKESAQGGIGEAIVDIPEIPGFKDLEPMEQFIAQVDLCVDCTTGCLKGLANVQCSDLLKKWLPQRCATFASKIQGQVDKIKGAGGD
modifications: SIGNAL (1)..(17)
notes: Gaussia luciferase mutant
For B6, the entries for the “Activity of mutant relative to wild-type Gaussia luciferase without the signal peptide” value in assay [1] and in assay [2] were 0.000 and 1.120, respectively.

B7: F26L N27D V29A V31L A32D S33N T37E L40T: Gaussia luciferase mutant (protein)
chain: MGVKVLFALICIAVAEAKPTENNEDLDIAALDNNFAETDTDADRGKLPGKKLPLEVLKEMEANARKAGCTRGCLICLSHIKCTPKMKKFIPGRCHTYEGDKESAQGGIGEAIVDIPEIPGFKDLEPMEQFIAQVDLCVDCTTGCLKGLANVQCSDLLKKWLPQRCATFASKIQGQVDKIKGAGGD
modifications: SIGNAL (1)..(17)
notes: Gaussia luciferase mutant
Consider B7, for which the results for the “Activity of mutant relative to wild-type Gaussia luciferase without the signal peptide” value in assay [1] and in assay [2] were 0.191 and 0.000, respectively.

B8: F26D N27D V290 A30D V31I S33R T37L: Gaussia luciferase mutant (protein)
chain: MGVKVLFALICIAVAEAKPTENNEDDDIVDIARNFALTDLDADRGKLPGKKLPLEVLKEMEANARKAGCTRGCLICLSHIKCTPKMKKFIPGRCHTYEGDKESAQGGIGEAIVDIPEIPGFKDLEPMEQFIAQVDLCVDCTTGCLKGLANVQCSDLLKKWLPQRCATFASKIQGQVDKIKGAGGD
B8: the figures for the “Activity of mutant relative to wild-type Gaussia luciferase without the signal peptide” value in assay [1] and in assay [2] were 0.213 and 1.110, respectively.

B9: F26L N27D A30D V31L A32V S33N A36N T37A L40S: Gaussia luciferase mutant (protein)
chain: MGVKVLFALICIAVAEAKPTENNEDLDIVDLVNNFNATDSDADRGKLPGKKLPLEVLKEMEANARKAGCTRGCLICLSHIKCTPKMKKFIPGRCHTYEGDKESAQGGIGEAIVDIPEIPGFKDLEPMEQFIAQVDLCVDCTTGCLKGLANVQCSDLLKKWLPQRCATFASKIQGQVDKIKGAGGD
modifications: SIGNAL (1)..(17)
notes: Gaussia luciferase mutant
B9: the “Activity of mutant relative to wild-type Gaussia luciferase without the signal peptide” value in assay [1] stood at 1.802; in assay [2] it was 0.799.

B10: F26L N27D V29P A30G V31I A32G S33A A36T T37C L40E I112T: Gaussia luciferase mutant (protein)
chain: MGVKVLFALICIAVAEAKPTENNEDLDIPGIGANFTCTDEDADRGKLPGKKLPLEVLKEMEANARKAGCTRGCLICLSHIKCTPKMKKFIPGRCHTYEGDKESAQGGIGEATVDIPEIPGFKDLEPMEQFIAQVDLCVDCTTGCLKGLANVQCSDLLKKWLPQRCATFASKIQGQVDKIKGAGGD
modifications: SIGNAL (1)..(17)
notes: Gaussia luciferase mutant
For B10, the “Activity of mutant relative to wild-type Gaussia luciferase without the signal peptide” value was determined as 0.395 in assay [1] and 0.001 in assay [2].

B11: F26L N27D V29D A30G S33N A36I T37D L40R: Gaussia luciferase mutant (protein)
chain: MGVKVLFALICIAVAEAKPTENNEDLDIDGVANNFIDTDRDADRGKLPGKKLPLEVLKEMEANARKAGCTRGCLICLSHIKCTPKMKKFIPGRCHTYEGDKESAQGGIGEAIVDIPEIPGFKDLEPMEQFIAQVDLCVDCTTGCLKGLANVQCSDLLKKWLPQRCATFASKIQGQVDKIKGAGGD
modifications: SIGNAL (1)..(17)
notes: Gaussia luciferase mutant
In the case of B11, the “Activity of mutant relative to wild-type Gaussia luciferase without the signal peptide” value is 1.989 in assay [1] and 0.726 in assay [2].

B12: F26I N27D V29S A30G V31L A32V S33D A36V T37E L40G: Gaussia luciferase mutant (protein)
chain: MGVKVLFALICIAVAEAKPTENNEDIDISGLVDNFVETDGDADRGKLPGKKLPLEVLKEMEANARKAGCTRGCLICLSHIKCTPKMKKFIPGRCHTYEGDKESAQGGIGEAIVDIPEIPGFKDLEPMEQFIAQVDLCVDCTTGCLKGLANVQCSDLLKKWLPQRCATFASKIQGQVDKIKGAGGD
modifications: SIGNAL (1)..(17)
notes: Gaussia luciferase mutant
As for B12, the “Activity of mutant relative to wild-type Gaussia luciferase without the signal peptide” value was found to be 2.094 in assay [1] and 0.788 in assay [2].

B13: F26D N27H V29K A30G A32G S33L T37L L40R: Gaussia luciferase mutant (protein)
chain: MGVKVLFALICIAVAEAKPTENNEDDHIKGVGLNFALTDRDADRGKLPGKKLPLEVLKEMEANARKAGCTRGCLICLSHIKCTPKMKKFIPGRCHTYEGDKESAQGGIGEAIVDIPEIPGFKDLEPMEQFIAQVDLCVDCTTGCLKGLANVQCSDLLKKWLPQRCATFASKIQGQVDKIKGAGGD
modifications: SIGNAL (1)..(17)
notes: Gaussia luciferase mutant
With B13, the entries for the “Activity of mutant relative to wild-type Gaussia luciferase without the signal peptide” value in assay [1] and in assay [2] were 0.381 and 0.037, respectively.
